# Experimental data as given in article PMC11879086, “Identification and characterization of a human MORC2 DNA binding region that is required for gene silencing” (Nucleic Acids Research, 2024).
# Where a chain is given by its changes, count along the chain named.
# T1: MORC2 subset N (Homo sapiens, UniProt Q9Y6X9 1-1032, K704D;R707D;K713D;K716D;K721D;K722D)
# T1 sequence: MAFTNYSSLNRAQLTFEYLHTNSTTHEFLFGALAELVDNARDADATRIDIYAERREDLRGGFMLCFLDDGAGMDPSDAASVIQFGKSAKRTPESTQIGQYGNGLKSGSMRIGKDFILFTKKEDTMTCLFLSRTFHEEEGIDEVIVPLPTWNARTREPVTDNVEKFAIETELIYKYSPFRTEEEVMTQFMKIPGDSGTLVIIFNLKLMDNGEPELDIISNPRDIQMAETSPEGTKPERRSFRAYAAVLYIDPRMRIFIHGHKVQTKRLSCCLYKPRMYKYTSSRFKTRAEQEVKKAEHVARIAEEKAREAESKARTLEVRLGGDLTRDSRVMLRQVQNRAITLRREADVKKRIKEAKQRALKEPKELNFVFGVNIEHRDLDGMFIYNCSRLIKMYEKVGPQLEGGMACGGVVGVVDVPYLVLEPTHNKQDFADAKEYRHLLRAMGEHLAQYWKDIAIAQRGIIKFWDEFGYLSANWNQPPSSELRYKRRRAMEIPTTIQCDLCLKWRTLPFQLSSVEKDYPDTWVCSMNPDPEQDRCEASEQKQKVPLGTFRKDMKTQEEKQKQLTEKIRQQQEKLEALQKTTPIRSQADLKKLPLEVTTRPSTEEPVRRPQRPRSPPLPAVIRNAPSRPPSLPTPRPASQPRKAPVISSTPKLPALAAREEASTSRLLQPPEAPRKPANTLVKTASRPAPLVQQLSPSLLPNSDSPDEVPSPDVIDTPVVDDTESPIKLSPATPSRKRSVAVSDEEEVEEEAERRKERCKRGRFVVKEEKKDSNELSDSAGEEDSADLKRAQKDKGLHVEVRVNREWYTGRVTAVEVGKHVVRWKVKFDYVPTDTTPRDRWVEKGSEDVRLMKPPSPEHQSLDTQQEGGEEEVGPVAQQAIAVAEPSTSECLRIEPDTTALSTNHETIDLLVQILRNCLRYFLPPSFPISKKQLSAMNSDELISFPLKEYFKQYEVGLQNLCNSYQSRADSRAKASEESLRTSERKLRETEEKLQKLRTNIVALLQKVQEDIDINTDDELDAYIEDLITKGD
# T2: MORC2 dephosphorylated (wild-type) (Homo sapiens, UniProt Q9Y6X9 1-1032)
# T2 sequence: T1 sequence with D704K, D707R, D713K, D716K, D721K, D722K
# B1: Random 35mer dsDNA (dsDNA)
# DNA 1: ATAGGGTCCATCAGAATTCGGATGAACTCGGTGTG
# DNA 2: CACACCGAGTTCATCCGAATTCTGATGGACCCTAT
# Legend:
# MORC2 subset N = target: T1, MORC2 subset N; assay: fluorescence anisotropy; apo; FA/EMSA: 50 mM NaCl, 3 mM MgCl2, 20 mM Na-HEPES pH 7.4, 1 mM TCEP, 10% glycerol, 0.025 mM ZnCl2, 50 ug/ml BSA, room temperature; 1 nM nucleic acid (FA) or 20 nM DNA (EMSA); conditions: protein: recombinant; tags: tag removed by TEV; chain copies: 2; label: 5'-6-FAM; blunt
# [1] = target: T2, MORC2 dephosphorylated (wild-type); assay: fluorescence anisotropy; apo; second listing ('5 or less'); FA/EMSA: 50 mM NaCl, 3 mM MgCl2, 20 mM Na-HEPES pH 7.4, 1 mM TCEP, 10% glycerol, 0.025 mM ZnCl2, 50 ug/ml BSA, room temperature; 1 nM nucleic acid (FA) or 20 nM DNA (EMSA); conditions: protein: recombinant; tags: tag removed by TEV; chain copies: 2; label: 5'-6-FAM; blunt
binder,measurement,setting,value
B1,Kd,MORC2 subset N,90 ± 20 nM
same,Kd,[1],< 5 nM
